Blank lines part the entries; values can stand above or below the binder they belong to. Where no end group is shown, it is not given here. [ ]: non-standard residue; d: D form. pGlu = O=C1CC[C@@H](C(=O)O)N1
What was measured:
[1] = biological target: MAb 445-1; experiment: MAb inhibition ELISA; soluble inhibitor of MAb binding to coated hG34(16-34)-Gly 35-BSA
[2] = biological target: MAb 445-2; experiment: as above
[3] = biological target: MAb 400-1; experiment: MAb inhibition ELISA; soluble inhibitor of MAb binding to coated hG17(1-9)-“Ala”-BSA
[4] = biological target: MAb 400-2; experiment: as above
[5] = biological target: MAb 400-3; experiment: as above
[6] = biological target: MAb 400-4; experiment: as above
[7] = biological target: MAb 458-1; experiment: MAb inhibition ELISA; soluble inhibitor of MAb binding to the coated C-terminal target peptide-BSA
[8] = biological target: MAb 458-2; experiment: as above
[9] = biological target: MAb 458-3; experiment: as above
[10] = biological target: MAb 458-4; experiment: as above
[11] = biological target: MAb 458-5; experiment: as above
[12] = biological target: MAb 401-2; experiment: MAb inhibition ELISA; soluble inhibitor of MAb 401-2 binding to the coated G34 N-terminal target antigen

Binder: CPPPPSSYGWMDFG [hG17 (12-17)-Gly18 peptide (immunogen peptide …)]
IC50 [1]: 4000 nM
IC50 [2]: 13 µM

Binder: EGPWLEEEEEAYGWMDF (N-terminal pyroglutamic acid (pGlu); C-terminal Phe-NH2 (amide)) [human gastrin-17 (G17), mature amidated form]
IC50 [3]: 2030 nM
IC50 [4]: 85 nM
IC50 [5]: 1080 nM
IC50 [6]: 620 nM
% Inhibition at 10 nmol/ml (250 pmoles/well) [7]: 94.3%
% Inhibition at 10 nmol/ml (250 pmoles/well) [8]: 86%
% Inhibition at 10 nmol/ml (250 pmoles/well) [9]: 92.4%
% Inhibition at 10 nmol/ml (250 pmoles/well) [10]: 88.4%
% Inhibition at 10 nmol/ml (250 pmoles/well) [11]: 91.9%

Binder: EGPWLEKEEAAYGWMDF (ends and bridges not checked) [equine G17]
IC50 [3]: 1650 nM
IC50 [4]: 86 nM
IC50 [5]: 120 nM
IC50 [6]: 1690 nM

B1: human gastrin-34 (G34), amidated (peptide)
peptide: [pGlu]LGPQGPPHLVADPSKKEGPWLEEEEEAYGWMDF-NH2
SMILES: CSCC[C@H](NC(=O)[C@H](Cc1c[nH]c2ccccc12)NC(=O)CNC(=O)[C@H](Cc1ccc(O)cc1)NC(=O)[C@H](C)NC(=O)[C@H](CCC(=O)O)NC(=O)[C@H](CCC(=O)O)NC(=O)[C@H](CCC(=O)O)NC(=O)[C@H](CCC(=O)O)NC(=O)[C@H](CCC(=O)O)NC(=O)[C@H](CC(C)C)NC(=O)[C@H](Cc1c[nH]c2ccccc12)NC(=O)[C@@H]1CCCN1C(=O)CNC(=O)[C@H](CCC(=O)O)NC(=O)[C@H](CCCCN)NC(=O)[C@H](CCCCN)NC(=O)[C@H](CO)NC(=O)[C@@H]1CCCN1C(=O)[C@H](CC(=O)O)NC(=O)[C@H](C)NC(=O)[C@@H](NC(=O)[C@H](CC(C)C)NC(=O)[C@H](Cc1c[nH]cn1)NC(=O)[C@@H]1CCCN1C(=O)[C@@H]1CCCN1C(=O)CNC(=O)[C@H](CCC(N)=O)NC(=O)[C@@H]1CCCN1C(=O)CNC(=O)[C@H](CC(C)C)NC(=O)[C@@H]1CCC(=O)N1)C(C)C)C(=O)N[C@@H](CC(=O)O)C(=O)N[C@@H](Cc1ccccc1)C(N)=O
% Inhibition at 10 nmol/ml (250 pmoles/well) [7]: 93.5%
% Inhibition at 10 nmol/ml (250 pmoles/well) [8]: 84.5%
% Inhibition at 10 nmol/ml (250 pmoles/well) [9]: 90.7%
% Inhibition at 10 nmol/ml (250 pmoles/well) [10]: 86.7%
% Inhibition at 10 nmol/ml (250 pmoles/well) [11]: 91.5%
IC50 [12]: 700 nM

Binder: [pGlu]GPWLEEEEEAYGWMDFG [human glycine-extended gastrin-17 (G17-Gly)]
IC50 [3]: 1790 nM
IC50 [4]: 77 nM
IC50 [5]: 1390 nM
IC50 [6]: 699 nM
IC50 [1]: 700 nM
IC50 [2]: 5 µM
% Inhibition at 10 nmol/ml (250 pmoles/well) [7]: 2.1%

Now from value to binder:

% Inhibition at 10 nmol/ml (250 pmoles/well) [9]: 1.2%
Binder: [pGlu]GPWLEEEE (ends and bridges not checked) [hG17(1-9) N terminus peptide]

% Inhibition at 10 nmol/ml (250 pmoles/well) [7]: 93.8%
% Inhibition at 10 nmol/ml (250 pmoles/well) [8]: 84.8%
% Inhibition at 10 nmol/ml (250 pmoles/well) [9]: 84.8%
% Inhibition at 10 nmol/ml (250 pmoles/well) [10]: 83.4%
% Inhibition at 10 nmol/ml (250 pmoles/well) [11]: 92%
Binder: DYMGWMDF-NH2 [CCK (26-33) unsulfated]
